Measurements published in patent US20260098102A1 (NATIONAL UNIVERSITY CORPORATION KOBE UNIVERSITY, published 2026).
Positions count from the first letter of the chain named.

Assays:
human SIRPA_V4 = target: T1, human SIRPA_V4 (human, UniProt P78324 31-504); test: cell-based ELISA on 293α cells expressing FLAG-tagged SIRPA_V4; Abs 490 normalized to FLAG tag [iv]
T1 construct: FLAG-tagged (pFLAG V5-DEST), on 293α cells; also called human SIRPA Variant 4
T1 chain: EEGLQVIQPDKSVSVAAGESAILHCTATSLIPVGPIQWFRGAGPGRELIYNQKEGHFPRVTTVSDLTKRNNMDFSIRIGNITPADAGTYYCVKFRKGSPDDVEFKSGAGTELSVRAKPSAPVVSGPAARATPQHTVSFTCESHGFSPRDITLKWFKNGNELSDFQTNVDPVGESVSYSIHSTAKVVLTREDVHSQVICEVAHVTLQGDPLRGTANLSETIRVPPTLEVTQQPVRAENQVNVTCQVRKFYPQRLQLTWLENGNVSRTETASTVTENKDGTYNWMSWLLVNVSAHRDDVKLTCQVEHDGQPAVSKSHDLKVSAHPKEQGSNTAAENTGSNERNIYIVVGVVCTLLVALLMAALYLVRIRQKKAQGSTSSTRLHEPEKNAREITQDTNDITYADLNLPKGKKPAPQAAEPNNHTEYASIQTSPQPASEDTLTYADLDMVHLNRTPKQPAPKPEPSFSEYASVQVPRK
Description: (§1) The 293a cells, described in Example 1)-6, were prepared at 5× 10⁵ cells/mL in a 10% FBS-containing DMEM medium. pFLAG V5-DEST-SIRPA_V1-V10, pFLAG V5-DEST-monkey SIRPA, pFLAG V5-DEST-mouse SIRPA, or pFLAG V5-DEST was introduced into the cells using Lipofectamine LTX (Invitrogen), and 100 μL each was aliquoted to a 96-well plate (Corning Incorporated) and cultured overnight in a 10% FBS-containing DMEM medium at 37° C. under a 5% CO₂ condition. The obtained introduced cells were used for cell-based ELISA in a state that they adhered. After the culture supernatant was removed, 50 μL per well of hD13_HIL3, hD13_HIL4h, hD13_H2L2, hD13_H2L3, or cD13 prepared in Examples 6 and 7 or a control antibody was added to each of various SIRPA genes-introduced cells at a final concentration of 0 to 10,000 ng/ml, and the mixture was allowed to stand at 4° C. for one hour. Thereafter, binding to human SIRPA was evaluated in the same manner as in Example 5-1.

mouse SIRPA_C57BL/6 = target: T2, mouse SIRPA_C57BL/6 (mouse (C57BL/6), UniProt P97797 32-513); test: cell-based ELISA on 293α cells expressing FLAG-tagged mouse SIRPA (C57BL/6); Abs 490 normalized to FLAG tag [i]
T2 construct: FLAG-tagged (pFLAG V5-DEST), on 293α cells
T2 sequence: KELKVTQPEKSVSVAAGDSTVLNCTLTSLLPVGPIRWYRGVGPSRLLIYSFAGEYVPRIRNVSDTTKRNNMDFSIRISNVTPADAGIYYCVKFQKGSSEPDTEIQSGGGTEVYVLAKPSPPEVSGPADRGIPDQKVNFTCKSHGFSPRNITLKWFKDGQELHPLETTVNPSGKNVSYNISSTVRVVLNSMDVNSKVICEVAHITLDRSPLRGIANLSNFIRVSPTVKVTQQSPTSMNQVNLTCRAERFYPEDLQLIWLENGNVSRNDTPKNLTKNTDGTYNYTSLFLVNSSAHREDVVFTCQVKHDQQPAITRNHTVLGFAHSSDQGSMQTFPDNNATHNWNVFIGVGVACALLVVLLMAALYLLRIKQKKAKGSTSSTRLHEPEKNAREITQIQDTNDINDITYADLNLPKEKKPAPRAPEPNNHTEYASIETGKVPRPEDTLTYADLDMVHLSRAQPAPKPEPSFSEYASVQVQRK
Description: as §1

human SIRPA_V5 = target: T3, human SIRPA_V5 (human, UniProt P78324 31-504); test: cell-based ELISA on 293α cells expressing FLAG-tagged SIRPA_V5; Abs 490 normalized to FLAG tag [i]
T3 construct: FLAG-tagged (pFLAG V5-DEST), on 293α cells; also called human SIRPA Variant 5
T3 sequence (P78324 other isoform, or with tags, fused parts or gaps limits assumed): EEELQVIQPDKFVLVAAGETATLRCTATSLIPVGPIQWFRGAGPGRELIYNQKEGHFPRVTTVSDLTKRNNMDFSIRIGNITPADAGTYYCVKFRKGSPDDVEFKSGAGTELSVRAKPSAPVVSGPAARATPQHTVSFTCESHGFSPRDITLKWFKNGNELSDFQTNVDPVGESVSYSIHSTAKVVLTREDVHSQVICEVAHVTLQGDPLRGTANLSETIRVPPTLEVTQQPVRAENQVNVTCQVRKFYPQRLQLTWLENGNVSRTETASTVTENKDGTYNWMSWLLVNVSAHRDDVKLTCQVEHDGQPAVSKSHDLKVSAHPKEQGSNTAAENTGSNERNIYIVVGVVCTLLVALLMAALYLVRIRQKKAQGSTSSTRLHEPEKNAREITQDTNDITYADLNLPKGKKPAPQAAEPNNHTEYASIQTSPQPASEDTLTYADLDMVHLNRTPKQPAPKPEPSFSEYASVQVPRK
Description: as §1

human SIRPA_V9 = target: T4, human SIRPA_V9 (human, UniProt P78324 31-504); test: cell-based ELISA on 293α cells expressing FLAG-tagged SIRPA_V9; Abs 490 normalized to FLAG tag [i]
T4 construct: FLAG-tagged (pFLAG V5-DEST), on 293α cells; also called human SIRPA Variant 9
Description: as §1

human SIRPA_V8 = target: T5, human SIRPA_V8 (human, UniProt P78324 31-504); test: cell-based ELISA on 293α cells expressing FLAG-tagged SIRPA_V8; Abs 490 normalized to FLAG tag [iv]
T5 construct: FLAG-tagged (pFLAG V5-DEST), on 293α cells; also called human SIRPA Variant 8
Description: as §1

B1: human chimeric anti-SIRPA antibody cD13 (antibody, human IgG4 S228P, kappa, F234A L235A, V domains shown)
VH: EVQLVESGGGLVQPGRSLKLSCLASGFTFSDYGMIWVRQAPGKGLEWVASISSSSSYIYYADTVKGRFTISRENAKNTLFLHMTSLRSEDTALYYCARRYYGFNYPFDYWGQGVMVTVSS
VL: DTVLTQSPALAVSLGQRVTISCGASKSVRTYMHWYQQKSGQQPKLLIYSASNLEAGVPSRFSGSGSGTDFTLTIDPVEADDIANYYCQQSNEPPYTFGAGTKLELKR
notes: Human IgG4proFALA heavy chain, human kappa light chain; also called cD13 (IgG4pf); human chimeric antibody D13
EC50 (read off the curve) (human SIRPA_V4): ~0.04 µg/mL | binding result (mouse SIRPA_C57BL/6): no binding (tested: 10000 ng/mL) | EC50 (read off the curve) (human SIRPA_V5): ~0.04 µg/mL | EC50 (read off the curve) (human SIRPA_V9): ~0.04 µg/mL | EC50 (read off the curve) (human SIRPA_V8): ~0.04 µg/mL

B2: humanized anti-SIRPA antibody hD13_H1L3 (antibody, human IgG4 S228P, kappa, F234A L235A, V domains shown)
VH: QVQLVESGGGVVQPGRSLRLSCAASGFTFSDYGMIWVRQAPGKGLEWVASISSSSSYIYYADSVKGRFTISRDNSKNRLYLQMNSLRAEDTAVYYCARRYYGFNYPFDYWGQGTMVTVSS
VL: DTQLTQSPSSLSASVGQRVTITCGASKSVRTYMHWYQQKPGKQPKLLIYSASNLEAGVPSRFSGSGSGTDFTLTISSLQPEDFATYYCQQSNEPPYTFGQGTKLEIKR
notes: hH1 heavy chain (IgG4proFALA) and hL3 kappa light chain; also called hD13_HIL3; HIL3 antibody
EC50 (read off the curve) (human SIRPA_V4): ~0.03 µg/mL | binding result (mouse SIRPA_C57BL/6): no binding (tested: 10000 ng/mL) | EC50 (read off the curve) (human SIRPA_V5): ~0.04 µg/mL | EC50 (read off the curve) (human SIRPA_V9): ~0.04 µg/mL | EC50 (read off the curve) (human SIRPA_V8): ~0.04 µg/mL

B3: humanized anti-SIRPA antibody hD13_H2L2 (antibody, human IgG4 S228P, kappa, F234A L235A, V domains shown)
VH: B2 VH with Q1E, R78T
VL: B2 VL with D1A, T2I, Q43A
notes: hH2 heavy chain (IgG4proFALA) and hL2 kappa light chain; also called H2L2 antibody
EC50 (read off the curve) (human SIRPA_V4): ~0.04 µg/mL | binding result (mouse SIRPA_C57BL/6): no binding (tested: 10000 ng/mL) | EC50 (read off the curve) (human SIRPA_V5): ~0.04 µg/mL | EC50 (read off the curve) (human SIRPA_V9): ~0.04 µg/mL | EC50 (read off the curve) (human SIRPA_V8): ~0.04 µg/mL

B4: humanized anti-SIRPA antibody hD13_H1L4 (antibody, human IgG4 S228P, kappa, F234A L235A, V domains shown)
VH: B2 VH
VL: DTVLTQSPDSLAVSLGQRATINCGASKSVRTYMHWYQQKPGQQPKLLIYSASNLEAGVPSRFSGSGSGTDFTLTISSLQAEDVAVYYCQQSNEPPYTFGQGTKVEIKR
notes: hH1 heavy chain (IgG4proFALA) and hL4 kappa light chain; also called hD13_HIL4; hD13_HIL4h
EC50 (read off the curve) (human SIRPA_V4): ~0.04 µg/mL | binding result (mouse SIRPA_C57BL/6): no binding (tested: 10000 ng/mL) | EC50 (read off the curve) (human SIRPA_V5): ~0.04 µg/mL | EC50 (read off the curve) (human SIRPA_V9): ~0.04 µg/mL | EC50 (read off the curve) (human SIRPA_V8): ~0.04 µg/mL

B5: humanized anti-SIRPA antibody hD13_H2L3 (antibody, human IgG4 S228P, kappa, F234A L235A, V domains shown)
VH: B2 VH with Q1E, R78T
VL: B2 VL
notes: hH2 heavy chain (IgG4proFALA) and hL3 kappa light chain; also called H2L3 antibody
EC50 (read off the curve) (human SIRPA_V4): ~0.04 µg/mL | binding result (mouse SIRPA_C57BL/6): no binding (tested: 10000 ng/mL) | EC50 (read off the curve) (human SIRPA_V5): ~0.04 µg/mL | EC50 (read off the curve) (human SIRPA_V9): ~0.04 µg/mL | EC50 (read off the curve) (human SIRPA_V8): ~0.04 µg/mL
